# Assay results from patent US20090203877A1, “X-RAY-DENSE CONJUGATE” (Eberhard-Karls-Universitaet Tuebingen Universitaetsklinkum, priority 2006, published 2009).
# “Also recorded” adds a separate entry of the source.
# Test system: human malignant U373 glioma cells
# Test: Cell viability / cell death (MTT test, propidium iodide, annexin-V-Alexa 568 binding, FACS scatter morphology)
# Conditions: for binding of annexin-V-Alexa 568 reagent (phosphatidyl serine) / cytotoxic effects: 260 μM in 0.1% DMSO/PBS; for binding of annexin-V-Alexa 568 reagent (phosphatidyl serine) / cytotoxic effects / cytotoxic effects / signs of cell death: substance alone; for cytotoxic effects / signs of cell death: 260 μM in PBS
# Protocol: Human malignant U373-glioma cells were grown to 70% confluency in RPMI-1640 Ready Mix Medium containing L-Glutamine and 10% FBS-Gold (PAA laboratories, Pasching, Austria) at 37° C., 5% CO2 (vol/vol), in 4-well-plates (NUNC, Wiesbaden, Germany) with about 300,000 cells pro well. […] After this, the cells were washed three times with buffer and then incubated with Ready Mix Medium again. Cell viability was then assessed by the addition of methyl-thiazoyl-tetrazolium (MTT) salt (Sigma-Aldrich, Germany) at a concentration of 15 mg/ml. After 20 minutes, the production of formazan was investigated. When blue formazan granules were detected, propidium iodine (PI) was added to the medium (1 μM PI; Molecular Probes, Eugene, Oreg., USA) to detect cells with damaged cell membranes. […] Pictures were taken with a 3-CCD color video camera (MC3254P, Sony, Japan) and the Axiovision Software (Carl Zeiss, Jena, Germany). The intensity of cell fluorescence was recorded at the exposure time necessary for the production of the fluorescence images.
# After imaging, Accutase™ (PAA laboratories, Pasching, Austria) was added to the wells to achieve detachment of the cells for further FACS analysis. Fluorescence was measured in a Becton Dickinson FACSCalibur. A total of 20,000 events per sample were analyzed. The investigations were performed in triplicate.
# A sample of cells from each Eppendorf tube was subjected to the MTT test (described under 1.4) to determine microscopically whether the cells were viable. In vitro CT of the cell pellets was performed with a Somatom Sensation 16 (Siemens) which is used for routine clinical investigations.
# Cells were incubated for 20 minutes with each of the conjugates dissolved in 0.1% DMSO/PBS at 260 μm. The cells were also incubated with TIBA and both of the non-TIBA-containing conjugates (3 and 4) separately in 0.1% DMSO/OBS at 260 μm. Both TIBA and the conjugates were dissolved in 0.1% DMSO/PBS at 260 μm for incubation due to the insolubility of TIBA (but not the conjugates) in pure PBS. As controls, the cells were incubated with PBS alone, 0.1% DMSO/PBS alone, and TIBA alone (260 μm in 0.1% DMSO/PBS).
# The detection of phosphatidyl serine in the outer membrane leaflet of apoptotic cells was performed with the Annexin-V-Alexa™-568-reagent according to manufacturer's protocol (Roche Molecular Biochemicals, Indianapolis, USA). The confocal laser-scanning microscopy was performed on an inverted LSM 510 laser-scanning microscope (Carl Zeiss, Jena, Germany) (objectives: LD Achroplan 40×0.6, Plan Neofluar 20×0.50, 40×0.75). For fluorescence excitation, the 488 nm line of an argon-ion laser and the […] line of a helium-neon laser with appropriate beam splitters and barrier filters were used for FITC and Alexa respectively. Superimposed images of FITC- and Alexa-stained samples were created by overlaying coincident views. All measurements were performed on living, non-fixed cells.
# Human malignant LN18 and U373 glioma cells were cultivated in four-well plates (NUNC, Wiesbaden, Germany) (about 300,000 cells per well) as described under 1.5. […] The cells were also coincubated either with CIBA, FIBA or TBPI as well as the NLS-FITC conjugate 3 (each 260 μM). As a control cells were used which were only incubated either with CIBA, FIBA or TBPI (260 μM in PBS) alone. After the incubation the cells were washed three times with PBS and in the following again incubated in Ready Mix Medium. The FITC-labelled conjugates and the Alexa-Annexin for the detection of phosphatidylserine as a signal of the cell death were localized with the confocal laser microscopy (CLSM) as in 1.6.1. All measurements were performed on living cells.
Substance,binding of annexin-V-Alexa 568 reagent (phosphatidyl serine) / cytotoxic effects (20 min),cytotoxic effects / signs of cell death (20 min),binding of annexin-V-Alexa 568 reagent / cell viability (conjugate co-incubated with free TIBA (260 μM)),"cell viability / cell death (non-TIBA conjugates, 26 μM, 260 μM and 2.6 mM)","cell viability (MTT formazan, propidium iodide uptake) (26 μM, 20 min)","cellular morphology, side scatter versus forward scatter FACS (26 μM, compared to PBS controls)"
"PKKKRKVK(FITC)GGK (FITC, GGK linker) [conjugate 3]",did not result in binding,did not show any signs of cell death; also recorded: without a sign of cell dead,fails to result in binding; also recorded: did not result in any changes,No cell death,,
"PKKKRKVK(FITC)GGK(BA) (FITC, GGK linker, benzoic acid) [conjugate 9]",,no signs of cell death,,,,
"PKKKRKVK(FITC)GGK(TIBA) (FITC, GGK linker, TIBA) [conjugate 1]",binding of annexin-V-Alexa™ 568 reagent was found; also recorded: Most of these cells show the expression of phosphatidyl serine in the outer membrane leaflet,,,,living cells; also recorded: no signs of cell death,no changes in the cellular morphology
